Experiment: yeast display, Sf9 membrane polyspecificity reagent, FACS + sequencing; frameworks hold sequencing errors
Summary of the method: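 After 36–48 hours of galactose induction, yeast (Saccharomyces cerevisiae BJ5465) displaying a synthetic nanobody library were stained at 4 °C for 1 hour with 10% biotinylated, detergent-solubilized Sf9 membrane reagent. Streptavidin microbeads enriched the stained cells before FACS sorting into low and high (top ~1%) gates on anti-HA and streptavidin fluorescence. Each clone's polyreactivity label reflects its gate of origin.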
For “QVQLVESGGGLVQAGGSLRLSCAASGSIFSSNAMGWYRQAPGKERELVAAISKSGSRTYYADSVKGRFTISRDNAKNTVYLQMNSLKPEDTAVYYCNAVGVSVYYAIAYDYWGQGTQVTVSS”, the “polyreactivity (PSR sort gate)” value was “high polyreactivity”. For “QVQLVESGGGLVQAGGSLRLSCAASGSIFSSNAMGWYRQAPGKERELVAAITRGGRTTYADSVKGRFTISRDNAKNTVYLQMNSLKPEDTAVYYCAALHGRYPNRYDYWGQGTQVTVSS”, the “polyreactivity (PSR sort gate)” value was “low polyreactivity”. In the case of “QVQLVESGGGLVQAGGSLRLSCAASGSIFSSYAMGWYRQAPGKERELVAAISKSGVSTYYADSVKGRFTISRDNAKNTVYLQMNSLKPEDTAVYYCNAKGKYWHYDYWGQGTQVTVSS”, the “polyreactivity (PSR sort gate)” value is reported as “high polyreactivity”. In the case of “QVQLVESGGGLVQAGGSLRLSCAASGSIFSSYAMGWYRQAPGKERELVAAITSGGSTYYADSVKGRFTISRDNAKNTVYLLMNSLKPEDTAVYYCAARQVRTSILHMGYWGQGTQVTVSS”, the “polyreactivity (PSR sort gate)” value is reported as “low polyreactivity”. For “QVQLVESGGGLVQAGGSLRLSCAASGSIFSSYAMGWYRQAPGKEREVVASINSAGSTNYADSVKGRFTISRDNAKNTVYLQMNSLKPDDTAVYYCAASGGTWVNYRPEYDYWGQGTQVTVSS”, the “polyreactivity (PSR sort gate)” value was “low polyreactivity”. With “QVQLVESGGGLVQAGGSLRLSCAASGSIFSSYVMGWYRQAPGKEREVVAAITSRGGSTYYADSVKGRFTISRDNAKNTVYLQMNSLKPEDTAVYYCAKGGTTWYWSGYRSIYFRYDYWGQGTQVTVSS” the “polyreactivity (PSR sort gate)” value was “high polyreactivity”. With “QVQLVESGGGLVQAGGSLRLSCAASGSIFSTNAMGWYRQAPGKERELVAVITGIGGITYYADSVKGRFTISRDIAKNTVYLQMNSLIPEDTAVYYCAVGYWDSRYRYDLPNSDYWGQGTEVTVSS” the “polyreactivity (PSR sort gate)” value was “low polyreactivity”. In the case of “QVQLVESGGGLVQAGGSLRLSCAASGSIFSTYAMGWYRQAHGKERELVAAISRSGGSTYYADSVKGRFTISRDNAKNTVYLQMNSLKPEDTAVYYCAKVGRRQRYDYWGQGTQVTVSS”, the “polyreactivity (PSR sort gate)” value is reported as “high polyreactivity”. With “QVQLVESGGGLVQAGGSLRLSCAASGSIFSTYAMGWYRQAPGKERELVASITSTGGSTYYADSVKGRFTISRDNAKNTVYLQMNSLKPEDTAVYYCAARYRRTHRYYYAYSTMDYWGQGTQVTVSS” the “polyreactivity (PSR sort gate)” value was “high polyreactivity”. For “QVQLVESGGGLVQAGGSLRLSCAASGSIFSTYAMGWYRQAPGKERELVATIRRGGSTYYADSVKGRFTISRDNAKNTVYLQMNSLKPEDTAVYYCAATVSSYPYYRYYSWGQGTQVTVSS”, the “polyreactivity (PSR sort gate)” value was “high polyreactivity”. With “QVQLVESGGGLVQAGGSLRLSCAASGSIFSTYAMGWYRQAPGTERELVAAITWSGGSTYYADSVKGRFTISRDNAKNTVYFQMNSLKPEDTAVYYCATRGQGWGGKYGYWGQGTQVTVSS” the “polyreactivity (PSR sort gate)” value was “low polyreactivity”. For “QVQLVESGGGLVQAGGSLRLSCAASGSIFSTYTMGWYRQAPGKERELVAAITRSGGSTYYADSVKGRFTISRDNAKNTVYLQMNSLKPEDTAVYYCAARWKFPSSFYYWGQGTQVTVSS”, the “polyreactivity (PSR sort gate)” value was “high polyreactivity”. With “QVQLVESGGGLVQAGGSLRLSCAASGSIFSWNAMGWYRQAPGKERELVAAITGGGSTYYADSVKGRFTISRDNAKNTFYLQMNSLKPEDTAVYYCNALWYWDKLEYWGQGTQVTVSS” the “polyreactivity (PSR sort gate)” value was “high polyreactivity”. In the case of “QVQLVESGGGLVQAGGSLRLSCAASGSIFSWYAMGSYTQAPGKESELVAAITRGGSTYADSVKGRFTISRDNAKNTVYLQMNSLKPEDTAVYYCNAVYGVYDFNYWGQGTQVTVSS”, the “polyreactivity (PSR sort gate)” value is reported as “low polyreactivity”. In the case of “QVQLVESGGGLVQAGGSLRLSCAASGSIFSWYAMGWYRQAPGKERELVAAITWTGGSTYYADSVKGRFTISRDNAKNTVYLQMNSLKPEDTAVYYCAARRVVYRYYWYSAYDYWGQGTQVTVSS”, the “polyreactivity (PSR sort gate)” value is reported as “high polyreactivity”. In the case of “QVQLVESGGGLVQAGGSLRLSCAASGSIFSYKAMGWYRQAPGKERELVAAISWSGGRTYYADSVKGRFTISRDNAKNTVYLQMNSLKPEDTAVYYCNAQYRLYSEFNYWGQGTQVTVSS”, the “polyreactivity (PSR sort gate)” value is reported as “high polyreactivity”. For “QVQLVESGGGLVQAGGSLRLSCAASGSIFSYNAMGWNRQAPGKESELVAAISWSGGRTYYADSVKGRFTISRDNAKNTVYLQMNSLKPEDTAVYYCNAQYRLYSEFNYWGQGTQVTVSS”, the “polyreactivity (PSR sort gate)” value was “high polyreactivity”. With “QVQLVESGGGLVQAGGSLRLSCAASGSIFSYNAMGWYRQAPGKERELVAVITRGGSTYYADSVKGRFTISRDNAKNTVYLQMNSLKPEDTAVYYCAAGAHRRGYDYWGQGTQVTVSS” the “polyreactivity (PSR sort gate)” value was “high polyreactivity”. For “QVQLVESGGGLVQAGGSLRLSCAASGSIFSYNGMGWYRQAPGKEREFVAAITWRGGSTYYADSVKGRFTISRDNAMNTVYLQMNSLKPEDTAVYYCARRPGYALTWRVSGRYDYWGQGTQVTVSS”, the “polyreactivity (PSR sort gate)” value was “high polyreactivity”. In the case of “QVQLVESGGGLVQAGGSLRLSCAASGSIFSYNMGWYRQAPGKEREFVAAISSGGSTYYADSVKGRFTISRDNAKNTVYLQMNSLKPEDTAVYYCNRVRRGVWRQDDYWGQGTQVTVSS”, the “polyreactivity (PSR sort gate)” value is reported as “high polyreactivity”. In the case of “QVQLVESGGGLVQAGGSLRLSCAASGSIFSYNTMGWYRQAPGKERELVASISSSGGTTYYADSVKGRFTISRDNAKNTVYLQMNSLKPEDTAVYYCAAKLRSYYSGPRYYYWGQGTQVTVSS”, the “polyreactivity (PSR sort gate)” value is reported as “high polyreactivity”. With “QVQLVESGGGLVQAGGSLRLSCAASGSIFSYYAMAWYRHAPGKEREMVAAITSGGATTYYADSVKGRFTISRDNAKNTVYLQMNSLKQEDTAVYFCAAGYYVYFRWWELDYWGQGTQVTVSS” the “polyreactivity (PSR sort gate)” value was “low polyreactivity”. For “QVQLVESGGGLVQAGGSLRLSCAASGSIFSYYAMAWYRQAPGKERELVAAITWSGTRTYYADSVKGRFTISRDNAKNTVYLQMNSLKPEDTAVYYCAADSSIRDDYWGQGTQVTVSS”, the “polyreactivity (PSR sort gate)” value was “low polyreactivity”. For “QVQLVESGGGLVQAGGSLRLSCAASGSIFSYYAMGWYRQAPGKERELFADINLDDGRTYYADSVKGRFTISRDNAKNTVYLQMNSLKPEDTAVYYCAADEFYSFRYLFGPTFDYWGQGTQVTVSS”, the “polyreactivity (PSR sort gate)” value was “high polyreactivity”. With “QVQLVESGGGLVQAGGSLRLSCAASGSIFSYYAMGWYRQAPGKERELVAAISGSGGSTYYADSVKGRFTISRDNAKNTVYLQMNSLKPDDNAVYSCAARYYAWGRRRTWDDYWGQGTQVTVSS” the “polyreactivity (PSR sort gate)” value was “high polyreactivity”. With “QVQLVESGGGLVQAGGSLRLSCAASGSIFSYYAMGWYRQAPGKERELVAAISKRGASTYYADSVKGRFTISRDIAKNTVYLQMNSLKPEDTAVYYCAGYRQGSAYDYWGQGTQVTVSS” the “polyreactivity (PSR sort gate)” value was “high polyreactivity”. With “QVQLVESGGGLVQAGGSLRLSCAASGSIFSYYAMGWYRQAPGKERELVAAISWGDDSTYYADSVKGRFTISRDNAKNTVYLQMNSLKPEDTAVYYCAADRVGWYRTFDYWGQGTQVTVSS” the “polyreactivity (PSR sort gate)” value was “low polyreactivity”. With “QVQLVESGGGLVQAGGSLRLSCAASGSIFSYYAMGWYRQAPGKERELVAAISWNGGRTYYADSVKGRFTISRDNAMNTVFLQMNSLKPEDTAVYYCNAVKVYSYGLYGYWGQGTQVTVSS” the “polyreactivity (PSR sort gate)” value was “high polyreactivity”. In the case of “QVQLVESGGGLVQAGGSLRLSCAASGSIFSYYAMGWYRQAPGKERELVAAITGGGTTNYADSVKGRFTISRDNAKNTDYLQMNSLKPEDTAVYYCAADEPDVFAPGLYYWGQGTQVTLSS”, the “polyreactivity (PSR sort gate)” value is reported as “low polyreactivity”. For “QVQLVESGGGLVQAGGSLRLSCAASGSIFSYYTMGWYRPAPGKERELVAAISYSGGRTYYADSVKGRFTISRDNAKNTVYLQMNSLKTEDTAVYYCSAKLLQLRGRGYEYWGQGTQVTVSS”, the “polyreactivity (PSR sort gate)” value was “high polyreactivity”. In the case of “QVQLVESGGGLVQAGGSLRLSCAASGSIFSYYTMGWYRQAPGTERELVAASTRGGRTSYADSVKGRFTISRDNAKNTVYLQMNSLKPEDTAVYYCAADYWYFTHQLSTYGDNYWGQGTQVTVSS”, the “polyreactivity (PSR sort gate)” value is reported as “low polyreactivity”. For “QVQLVESGGGLVQAGGSLRLSCAASGSIFSYYVMGWYRQAPGKERELVAAISWSGGSTYYADSVKGRFTISRDNSKNTVYLQMNSLKPEDTAVYYCAAGTYPYYWGQGTQVTVSS”, the “polyreactivity (PSR sort gate)” value was “low polyreactivity”. In the case of “QVQLVESGGGLVQAGGSLRLSCAASGSIFSYYVMGWYRQAPGTERELVAAISYSGGRTYYADSVKGRFTISRDNAKNTVYLQMNSLKPEDTAVYYCAASRRVGEVSYYYWGQGTQVTVSS”, the “polyreactivity (PSR sort gate)” value is reported as “high polyreactivity”. For “QVQLVESGGGLVQAGGSLRLSCAASGSIFTANAMGWYRQAPGKERELVAAISRSGGNTYYADSVKGRFTISRDNAKNTVYLQMNSLKPEDTAVYYCAARQKGTGNYWGQGTQVTVSS”, the “polyreactivity (PSR sort gate)” value was “high polyreactivity”. For “QVQLVESGGGLVQAGGSLRLSCAASGSIFTAYAMGWYRQAPGKERELVAAITTSGDSTYYADSVKGRFTISRDNAKNTVYLQMNSLKPEDTAVYYCAAEYYSYRITTYDYWGQGTQVTVSS”, the “polyreactivity (PSR sort gate)” value was “high polyreactivity”. With “QVQLVESGGGLVQAGGSLRLSCAASGSIFTDNVMGWYSQAPGKERELVAAITYSAASTYYADSVKGRFTISRDNAKNTVYLQMNSLKPEDTAVYYCNARIIYRKWLFRSGTFNYWGQGTQVTVSS” the “polyreactivity (PSR sort gate)” value was “low polyreactivity”. In the case of “QVQLVESGGGLVQAGGSLRLSCAASGSIFTDYAMGWYRQAPGKERELVATITWSDASTYYTDSVKGRFTISRDNAKNTVYLQMNSLIPEDTAVYYCARRSRYSKGYDYWGQGTQVTVSS”, the “polyreactivity (PSR sort gate)” value is reported as “low polyreactivity”. With “QVQLVESGGGLVQAGGSLRLSCAASGSIFTEDAMGWYRQAPGKERELVAAISWSGATTYYADSVKGRFTISRDKAKNPVDLQMNSLKPEDTAVYYCAARWANRSYEYWGQGTQVTVSS” the “polyreactivity (PSR sort gate)” value was “low polyreactivity”. With “QVQLVESGGGLVQAGGSLRLSCAASGSIFTFNAMGWYRQAPGKERELDAGISWRTSSTSYADSVKGRFTNSRDNAKNTVYLQMNSLKPEDTAVYYCATEDSWGYEEVDYWGQGTQVTVSS” the “polyreactivity (PSR sort gate)” value was “low polyreactivity”. In the case of “QVQLVESGGGLVQAGGSLRLSCAASGSIFTFNTMGWYRQAPGKERELVATISSGGRTYYADSVKGRFTISRDNAKNTVYLQMNSLKPEDTAVYYCNKGYYGYTYVEYNYWGQGTQVTVSS”, the “polyreactivity (PSR sort gate)” value is reported as “low polyreactivity”. For “QVQLVESGGGLVQAGGSLRLSCAASGSIFTFYAMGWYRQAPGKERELVAAISKGGDRTYYADSVKGRFTISRDNAKNTVYLQMNSLIPEDTAVYYCARLVRPGRFGDGDYWGQGTQVTVSS”, the “polyreactivity (PSR sort gate)” value was “low polyreactivity”. With “QVQLVESGGGLVQAGGSLRLSCAASGSIFTFYAMGWYRQAPGKERELVATINRIGGNTYYADSVKGRFTISRDNAKNTVYLQMNSLKPEDTAVYYCAAKPTYRGYGYGSWGQGTQVTVSS” the “polyreactivity (PSR sort gate)” value was “low polyreactivity”. In the case of “QVQLVESGGGLVQAGGSLRLSCAASGSIFTFYAMRWYRQAPGKERELVATINRIGGNRYYADSVKGRFTISRDNAKNTVYLQMNSLKPEDTAGYYCAAKPTYRGYGYGSWGQGTQVNVSS”, the “polyreactivity (PSR sort gate)” value is reported as “low polyreactivity”.

— the nanobody polyreactivity screen of Harvey et al. (2022)
